Test results published in US20260234260A1 (EUCURE BEIJING BIOPHARMA, published 2026).
Like-named read-outs stand apart in the source and are kept apart here.

Tests used:
[1] = target: T1, human CD40 expressed on Jurkat-Luc-hCD40 reporter cells (human, UniProt P25942 21-277); experiment: cell-based or functional assay
[2] = target: T1, human CD40 expressed on …; experiment: cell-based or functional assay; remark: listed apart in the source
[3] = target: T1, human CD40 expressed on …; experiment: cell-based or functional assay; remark: listed apart in the source
[4] = target: T1, human CD40 expressed on …; experiment: cell-based or functional assay; remark: listed apart in the source
[5] = target: T1, human CD40 expressed on …; experiment: cell-based or functional assay; remark: listed apart in the source
[6] = target: T2, human CD40/TNFRSF5 Protein, His Tag (ACRO Biosystems Cat #CD0-H5228) (human, UniProt P25942 21-193); experiment: SPR (Biacore), antibody captured, His-tagged hCD40 in solution
T2 construct: Bought protein; also called hCD40; human CD40 protein; not shown: His tag

[7] = target: T2, human CD40/TNFRSF5 Protein, His Tag …; experiment: SPR (Biacore), hCD40
Procedure: The binding affinity to human […] (hCD40) was determined by Biacore systems.

T1 sequence (P25942 21-277 limits assumed): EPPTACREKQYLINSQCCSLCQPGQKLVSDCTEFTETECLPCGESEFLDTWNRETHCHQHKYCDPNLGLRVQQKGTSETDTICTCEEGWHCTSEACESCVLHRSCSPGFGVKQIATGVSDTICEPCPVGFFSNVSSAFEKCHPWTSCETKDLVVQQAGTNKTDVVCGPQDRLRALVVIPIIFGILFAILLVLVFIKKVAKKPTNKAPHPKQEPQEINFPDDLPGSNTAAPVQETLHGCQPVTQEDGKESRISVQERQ
T2 sequence (P25942 21-193 limits assumed): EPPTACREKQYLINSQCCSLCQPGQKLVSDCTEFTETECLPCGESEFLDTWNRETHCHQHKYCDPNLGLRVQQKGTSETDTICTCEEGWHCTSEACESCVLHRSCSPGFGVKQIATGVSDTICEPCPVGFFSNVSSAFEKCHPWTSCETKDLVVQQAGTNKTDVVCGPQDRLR

B1: anti-CD40 monoclonal antibody 6A7-H4K2-IgG2 (antibody, V domains shown)
VH: QVQLVQSGAEVKKPGASVKLSCKASGYTFISYYIYWVKQAPGQGLEWIGGINPRNGGTNFNEKFKSRATLTVDTSISTAYMELSRLRSEDTAVYYCTRHGNGVYWGQGTTLTVSS
VL: DVVMTQSPLSLPVTLGQPASISCRSSQSLLHSNGNTYLHWYQQRPGQSPNHLIYQVSNRFSGVPDRFSGSGSGTDFTLKISRVEAEDVGVYFCSQTTHVPWTFGGGTKVEIK
notes: IgG2; also called CD40 (6A7-H4K2-IgG2); C40 (6A7-H4K2-IgG2)
- EC50 (read off the curve), luciferase Rlu, Jurkat-Luc-hCD40 reporter cells with CHO-K1-hFcγRIIB basal cells [1]: ~0.02 µg/mL
- EC50 (read off the curve), luciferase Rlu, Jurkat-Luc-hCD40 reporter cells, no basal cells [2]: ~0.3 µg/mL
- EC50 (read off the curve), luciferase Rlu, Jurkat-Luc-hCD40 reporter cells with CHO-K1-hFcγRIIB basal cells [3]: ~0.01 µg/mL
- EC50 Value (ug/ml), luminescence of Jurkat-Luc-hCD40 reporter cells in the presence of Jurkat-hPD1 basal cells [4]: 0.0089 µg/mL
- EC50 Value (ug/ml), luminescence of Jurkat-Luc-hCD40 reporter cells in the presence of CHO-K1-hFcγRIIB basal cells [5]: 0.0203 µg/mL
- Kd [6]: 3.06 nM
- koff [6]: 0.000322 s⁻¹
- kon [6]: 105000 M⁻¹ s⁻¹
- Kd [7]: 3.06 nM
- koff [7]: 0.000322 s⁻¹
- kon [7]: 105000 M⁻¹ s⁻¹
